Square brackets hold non-standard residues; d marks the D form. Ends that are not written are not given here. Nva = CCC[C@H](N)C(=O)O
What was measured:
[1] = Gel stiffness (storage modulus G′) after NLC encapsulation; assay type: physicochemical; conditions: following encapsulation of neutral or negatively-charged NLCs
From the text: FIGS. 6A-6C show LNp encapsulation in a hydrogel. FIG. 6A is a graph of the comparative storage moduli (G′) of MAX8 gels with and without Neut-NLCs and Ani2-NLCs. FIG. 6B is a graph of the cumulative release profiles of Neut-NLC and Ani2-NLC from MAX8 gels. FIG. 6C is an image of LNp retention by MAX8 gels. A lipophilic dye (pink) was encapsulated within the NLCs to quantify release after 5 days.
To improve particle retention within the gel, the nanoparticles were modified to achieve a slightly negative surface charge (the hydrogel network is positively charged) by adding a small percentage of anionic surfactant (Glycolic Acid Ethoxylate Oleyl Ether) together with the Gelucire 44/14. Two different ratios of these surfactants were used until similarly sized nanoparticles were achieved.

[2] = Hydrogel toxicity after SQ injection in skin flap; conditions: SQ injection after flap raise, visual monitoring
Method: To this end, the condition of transplants was replicated by surgically separating the skin of the prospective area of injection (flap raise) followed by suturing the edges. After completion of the surgical procedure, empty hydrogel or Tofa containing hydrogel was injected SQ and the area monitored visually for any macroscopic sign of toxicity.

[3] = system: full MHC mismatch (C57BL/6 to BALB/c) mouse heart transplantation model; assay: Mouse heart transplantation model, systemic Tofa with CTLA4-Ig; assay type: in vivo
dendritic cells = assay: Maturation of dendritic cells under Tofa; assay type: cell-based
Treg = assay: Suppressive activity of Treg under Tofa; assay type: cell-based
[4] = system: mouse heart transplant model; assay: Mouse heart transplant model, localized Tofa hydrogel with CTLA4-Ig; assay type: in vivo; conditions: localized release around the transplanted heart, single administration
From the text: FIG. 3A is a schematic of localized delivery of Tofacitinib (Tofa) microcrystals from a hydrogel (MTH) implanted in mice receiving heterotopic heart transplant. FIG. 3B is survival curves of C57Bl/6 mice receiving BALB/c heart transplants under the indicated treatments.
A peptide hydrogel (MAX8) that self-assembles at physiological conditions and encapsulated crystalline Tofa (cJAKi-Hydro) was used to assess that the localized release of a JAKi (Tofa) around the transplanted heart would have synergism with CTLA4-Ig as systemic Tofa administration (FIG. 3A).

[5] = Release of Ani2-NLCs from peptide gels in the absence of enzyme; assay type: physicochemical
Method: (§1) Preliminary experiments were conducted on the proteolytic stability of the peptides and the impact on the release of the encapsulated NLCs. To investigate protease-mediated release, comparative release rates of Ani2-NLCs were studied with respect to nVET2 and IVET1 gels in trypsin-rich and MMP12-rich environments. Ani2-NLCs are retained within the gels over extended periods of time due to their negative zeta potential that allows them to bind to the positively charged gel network.
(§2) Upon trypsinization, both IVET1 and nVET2 gels show faster release rates of Ani2-NLCs than those observed in the absence of the protease. […] These relative release trends of IVET1 and nVET2 gels are somewhat consistent with the degradation of the individual peptides by trypsin and MMP12. Trypsin hydrolyzes proteins at the carboxyl side of lysine and arginine amino acid residues and as such, the peptides IVET1 and nVET2 contain six cleavable sites with respect to trypsin. On the other hand, MMP12 recognizes a single cleavage site (PLG↓VR) within each of the peptide sequences. Thus, the observed rate of release of the NLCs is proportional to the number of protease-specific cleavage sites within the peptide sequence
At the end of 10 days, less than 20% of Ani2-NLCs were released in the absence of enzyme. Thus, two distinct release regimes of tofacitinib are attainable with simultaneous incorporation of the drug as microcrystalline deposits and as Tofa-NLCs.

[6] = Release of microcrystalline tofacitinib from peptide gels (UV-Vis); assay type: physicochemical; conditions: 32 mM microcrystalline deposits, after 10 days
Method: The release rates of microcrystalline tofacitinib from select peptide gels (MAX8 and HLT2) was determined as in Majumder, P., et al., Small 2020, 16, 2002791, incorporated herein by reference (FIG. 18A). As such, the release rates were established for the enzyme cleavable peptides (nVET1 and IVET1) at two different drug loads—16 mM and 32 mM. The release of tofacitinib was quantified using UV-Vis spectroscopy (λ=285 nm). […] The release profile is thus dependent on the final concentration of drug loaded and consistent with crystal dissolution being rate-determining.

trypsin = assay: Protease-mediated release of NLC from peptide gels, trypsin; assay type: physicochemical; conditions: first 24 hours; for increase in release rate upon trypsinization: relative to absence of protease; for Ani2-NLCs released: with trypsin
Method: FIGS. 10A and 10B show protease responsive LNp release. […] FIG. 10B is a graph of the release profiles of Ani2-NLC from Peptide-4 gels in response to trypsin.
IVET2—SEQ ID NO: 7; IVET1—SEQ ID NO: 8; nVET2—SEQ ID NO: 9; nVET1—SEQ ID NO: 10.
as §1, §2

MMP12 [7] = molecular target: T1, MMP12 (Homo sapiens, UniProt P39900); assay: Protease-mediated release of NLC from peptide gels, MMP12; assay type: physicochemical; conditions: MMP12 treated gels
T1 sequence (P39900 106-470, species assumed): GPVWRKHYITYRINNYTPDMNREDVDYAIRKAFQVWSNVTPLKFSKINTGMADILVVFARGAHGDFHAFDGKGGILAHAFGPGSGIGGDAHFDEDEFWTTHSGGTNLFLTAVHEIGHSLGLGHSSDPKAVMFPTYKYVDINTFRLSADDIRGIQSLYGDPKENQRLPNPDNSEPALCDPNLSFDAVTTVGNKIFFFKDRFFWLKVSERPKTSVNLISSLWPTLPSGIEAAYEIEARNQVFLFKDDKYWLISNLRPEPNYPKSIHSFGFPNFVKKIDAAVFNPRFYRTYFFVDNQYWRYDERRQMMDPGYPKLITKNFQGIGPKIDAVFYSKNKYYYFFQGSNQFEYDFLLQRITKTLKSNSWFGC
Method: as §1, §2

MMP12 [8] = molecular target: T1, MMP12; assay: Rheology of MMP12-treated peptide gels; assay type: physicochemical; conditions: 150 ul, 1 wt % gels, 37° C., MMP12, 1×HBS pH 7.4, 12 days
Method: To provide further insight into the mechanistic effects of the gel release rates described above, the rheological properties of the MMP12-treated peptide gels were investigated. For this study, pre-formed IVET1 gels (150 ul, 1 wt %) were incubated at 37° C. with MMP12 (1×HBS, pH 7.4) and the storage modulus at 6.3 rad/s (obtained from frequency sweep measurements) was plotted at different time points for each gel. […] Despite peptide cleavage, the gels remained intact due to the stable cross-linked fiber network supported by the inter-hairpin hydrophobic contacts of the peptides upon self-assembly.

[9] = absence of enzyme, end of 10 days
[10] = absence of trypsin (control gel), first 24 hours

| Compound | Ani2-NLCs released [5, 9] | drug release [6] | increase in release rate upon trypsinization (trypsin) [fold] | Ani2-NLCs released (trypsin) [%] | release rate of Ani2-NLCs (MMP12 [7]) | Ani2-NLCs released [5, 10] [%] | further results |
| --- | --- | --- | --- | --- | --- | --- | --- |
| VKVKVKVKV^DPPTKVEVKVKV (VKVKVKVKVPPTKVEVKVKV; not fully specified (residue 10)) [MAX8] |  |  |  |  |  |  | gel stiffness [1]: stiffness is maintained; macroscopic sign of toxicity [2]: absence of any evidence of toxicity |
| C[C@@H]1CCN(C(=O)CC#N)C[C@@H]1N(C)c1ncnc2[nH]ccc12 [Tofa, 3-((3R,4R)-4-methyl-3-(methyl(7H-pyrrolo[2,3-d]pyrimidin-4-yl)amino)piperidin-1-yl)-3-oxopropanenitrile] |  |  |  |  |  |  | differentiation of TH1 effector T cells ([3]; Tofa+CTLA4-Ig): inhibition of the differentiation of TH1 effector T cells; regulatory T cells (Treg) ([3]; Tofa+CTLA4-Ig): accumulation of a high frequency of regulatory T cells; graft survival with ischemic hearts ([3]; Tofa+CTLA4-Ig, hearts kept ischemic for 4h before transplantation): improvement in survival was unaffected; graft survival ([3]; combination with CTLA4-Ig, Tofa POD-1 to POD6, twice daily via oral gavage): promoted long-term graft survival; up-regulation of MHC-II molecules (dendritic cells; dendritic cells): did not prevent the up-regulation of MHC-II molecules; maturation of dendritic cells (dendritic cells; upregulation of costimulatory molecules and secretion of pro-inflammatory cytokines): very effective at preventing the maturation of dendritic cells; suppressive activity of Treg (Treg): only minimally affected the suppressive activity of Treg; graft survival [4]: as effective at synergizing with systemic CTLA4-Ig as 16 oral gavage administrations |
| (nV)K(nV)E(nV)KVKV^DPPLGVRTK(nV)K(nV) ([Nva]K[Nva]E[Nva]KVKVPPLGVRTK[Nva]K[Nva]; also: P10 written ^DP (meaning not given here)) [nVET1] | less than 20% | less than 60% |  |  |  |  |  |
| IKVEIKVKV^DPPLGVRTKIKV (IKVEIKVKVPPLGVRTKIKV; also: P10 written ^DP (meaning not given here)) [IVET1] | less than 20% | less than 60% | ~12 | 17.4 | intermediate between their respective trypsin-rich and protease-free gel environments | 1.5 | storage modulus at 6.3 rad/s (MMP12 [8]): relatively stable storage modulus |
| (nV)KTE(nV)KVKV^DPPLGVRTK(nV)K(nV) ([Nva]KTE[Nva]KVKVPPLGVRTK[Nva]K[Nva]; also: P10 written ^DP (meaning not given here)) [nVET2] |  |  | 3 | 30 | intermediate between their respective trypsin-rich and protease-free gel environments | 10 |  |

Reference: patent US20260069536A1, “COMPOSITIONS, SYSTEMS, AND METHODS FOR DELIVERY OF THERAPEUTICS” (THE JOHNS HOPKINS UNIVERSITY, priority 2022, published 2026)
